{"source": "patent US20160311918A1", "about": "“Anti-Ron Monoclonal Antibodies as a Cytotoxic Drug Delivery System for Targeted Cancer Therapy” (TEXAS TECH UNIVERSITY SYSTEM, priority 2013, published 2016)", "key": {"[1]": {"target": "T1, RON on HCT116, HT29, and SW620 cells (Homo sapiens, UniProt Q04912)", "T1 construct": "We selected CRC cell lines LoVo, DLD1, HT29, HCT116, and SW620 expressing variable levels of RON as the cellular model; host or cells: HCT116, HT29, SW620", "experiment": "Flow cytometric binding to CRC cell lines", "settings": "all three CRC cell lines, flow cytometry", "method": "FIG. 2B: Binding of Zt/g4-DM1 to human CRC cell lines: HCT116, HT29, and SW620 cells (1×10^5 cells) were incubated with 5 μg Zt/g4-DM1 or Zt/c1-DM1. Free Zt/g4 and Zt/c1 was used as the control. Fluorescence intensity from individual samples was determined by flow cytometric analysis.\nThe binding capacity of Zt/g4-DM1 to RON was determined by flow cytometric analysis."}, "[2]": {"target": "T2, RON-β chain (mature RON) (Homo sapiens, UniProt Q04912)", "T2 construct": "We selected CRC cell lines LoVo, DLD1, HT29, HCT116, and SW620 expressing variable levels of RON as the cellular model; host or cells: HCT116, HT29, SW620", "T2 sequence (Q04912 310-1400 limits assumed)": "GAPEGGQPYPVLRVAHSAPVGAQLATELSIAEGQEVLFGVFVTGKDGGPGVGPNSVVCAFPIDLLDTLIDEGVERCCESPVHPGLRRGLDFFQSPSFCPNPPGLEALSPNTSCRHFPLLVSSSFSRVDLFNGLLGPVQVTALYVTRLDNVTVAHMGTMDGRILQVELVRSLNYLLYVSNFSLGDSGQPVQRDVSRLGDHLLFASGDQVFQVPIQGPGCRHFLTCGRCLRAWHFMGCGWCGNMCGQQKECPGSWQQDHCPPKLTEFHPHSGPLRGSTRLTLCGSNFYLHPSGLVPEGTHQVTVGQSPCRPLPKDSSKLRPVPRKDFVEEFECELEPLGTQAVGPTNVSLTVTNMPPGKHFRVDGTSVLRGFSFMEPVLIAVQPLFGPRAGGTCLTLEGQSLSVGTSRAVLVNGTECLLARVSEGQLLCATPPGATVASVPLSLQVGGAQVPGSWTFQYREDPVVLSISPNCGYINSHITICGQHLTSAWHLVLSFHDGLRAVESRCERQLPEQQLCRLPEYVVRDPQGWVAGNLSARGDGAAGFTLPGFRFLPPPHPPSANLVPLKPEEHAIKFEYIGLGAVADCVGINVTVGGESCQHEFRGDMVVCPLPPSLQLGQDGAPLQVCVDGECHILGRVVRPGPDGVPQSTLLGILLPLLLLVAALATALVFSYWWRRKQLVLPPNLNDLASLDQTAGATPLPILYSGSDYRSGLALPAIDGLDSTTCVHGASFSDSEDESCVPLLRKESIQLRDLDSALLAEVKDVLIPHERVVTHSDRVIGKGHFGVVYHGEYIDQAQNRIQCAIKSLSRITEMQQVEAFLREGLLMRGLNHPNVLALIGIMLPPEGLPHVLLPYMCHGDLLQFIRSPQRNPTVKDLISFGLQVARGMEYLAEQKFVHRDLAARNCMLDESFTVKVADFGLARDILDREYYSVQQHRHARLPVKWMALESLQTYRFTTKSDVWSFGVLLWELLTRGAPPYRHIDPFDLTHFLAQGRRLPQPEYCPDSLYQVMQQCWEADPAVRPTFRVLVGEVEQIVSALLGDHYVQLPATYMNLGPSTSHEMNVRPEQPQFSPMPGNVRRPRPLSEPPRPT", "T2 sequence (Q04912 25-304 limits assumed)": "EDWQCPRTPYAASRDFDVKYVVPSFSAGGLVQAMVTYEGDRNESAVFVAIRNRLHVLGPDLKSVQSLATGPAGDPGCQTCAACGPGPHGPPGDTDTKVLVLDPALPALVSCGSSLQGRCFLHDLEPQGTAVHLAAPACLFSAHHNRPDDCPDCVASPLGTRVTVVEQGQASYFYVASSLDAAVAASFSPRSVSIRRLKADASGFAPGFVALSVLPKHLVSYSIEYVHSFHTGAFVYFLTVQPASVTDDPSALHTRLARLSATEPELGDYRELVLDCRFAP", "experiment": "Western blot of RON expression in CRC cells", "assay_type": "cell-based", "settings": "36 h after treatment, 5 μg/ml"}, "[3]": {"tested_on": "RON-negative LoVo cells", "experiment": "Cell viability assay, LoVo", "assay_type": "cell-based, human", "procedure": "(§1) Cell viability and death assays: Cell viability 72 h after Zt/g4-DM1 treatment was determined by the MTT assay (22). Viable or dead cells were determined by the trypan blue exclusion assay. A total of 900 cells were counted from three individual wells to reach the percentages of dead cells.\nThe effect of Zt/g4-DM1 on cell viability was determined. […] The cells were treated with Zt/g4-DM1."}, "[4]": {"tested_on": "three CRC cell lines (HCT116, HT29, SW620)", "assay_type": "cell-based, human", "design": "cell death: dose or concentration left out as unconfirmed", "procedure": "Cell viability was determined by the MTS assay. […] Morphological changes were observed under the Olympus BK-41 inverted microscope and photographed. […] FIG. 3D: Cell death percentages were determined by the trypan blue exclusion method.\nas §1"}, "[5]": {"experiment": "In vivo toxicity in athymic nude mice", "design": "species or system mouse", "procedure": "(§2) FIGS. 6A to 6C show the toxicity of Zt/g4-DM1 in vivo. Body weight was measured every four days during the period of Zt/g4-DM1 treatment. FIG. 6A: Effect of multiple doses of Zt/g4-DM1 on mouse body weight was determined by administration of Zt/g4-DM1 at 1, 3, 7, 10, 15 mg/kg every four day with a total of 5 injections. Mice were weighed and monitored for a total of 31 days. FIG. 6B: Effect of a single dose of Zt/g4 at 20 mg/kg on mouse body weight was determined using mice bearing HT29, HCT116, or SW620-derived tumors. Body weight was monitored up to 28 days. FIG. 6C: Effect of high doses of Zt/G4-DM1 on mouse body weight was analyzed by tail vein injection at 20, 40 and 60 mg/kg to Balb/c mice. Mice were euthanized at day 21. In all cases, the average body weight of mice before Zt/g4-DM1 injection was 19.8±3.6 grams (5 mice per group) and set as 100%;\n(§3) In vivo toxicity studies: Acute toxicity with maximum tolerated dose was determined in Balb/C mice (four mice per dose) by a single tail vein injection of Zt/g4-DM1 at 20, 40, and 60 mg/kg body weight. Toxicity associated with different therapeutic doses was evaluated in athymic nude mice bearing HT29 tumor xenograft (five mice per dose). […] Toxicity was assessed by observing mouse behavior, weight loss, and survival.\nToxic effect of Zt/g4-DM1 on mice. Three studies using two different types of mice were performed to study Zt/g4-DM1 on animal behavior and body weight. The first study addressed the impact of multi-doses of Zt/g4-DM1. Athymic nude mice were injected five times with 1, 3, 5, 7, 10, 15 mg/kg of Zt/g4-DM1 and monitored every four days for a total period of 31 days. […] The second study observed the effect of a single dose of Zt/g4-DM1 at 20 mg/kg in nude mice bearing tumors derived from HT29, HCT116, and SW620 cells. […] The third study involved a single-dose injection of Zt/g4-DM1 at 20, 40, and 60 mg/kg in Balb/c mice monitored for 24 days (FIG. 6C). […] Also, a moderate reduction of about 6% body weight was observed within the first four days after 60 mg/kg Zt/g4-DM1 injection. […]"}, "[6]": {"experiment": "Acute toxicity in Balb/c mice", "assay_type": "in vivo, mouse", "procedure": "as §2, §3\nToxic effect of Zt/g4-DM1 on mice. Three studies using two different types of mice were performed to study Zt/g4-DM1 on animal behavior and body weight. The first study addressed the impact of multi-doses of Zt/g4-DM1. Athymic nude mice were injected five times with 1, 3, […], 7, 10, 15 mg/kg of Zt/g4-DM1 and monitored every four days for a total period of 31 days. […] The second study observed the effect of a single dose of Zt/g4-DM1 at 20 mg/kg in nude mice bearing tumors derived from HT29, HCT116, and SW620 cells. […] The third study involved a single-dose injection of Zt/g4-DM1 at 20, 40, and 60 mg/kg in Balb/c mice monitored for 24 days (FIG. 6C). […] Also, a moderate reduction of about 6% body weight was observed within the first four days after 60 mg/kg Zt/g4-DM1 injection. Although the average body weight from this group of mice slowly recovered during the observation period, the overall average remained lower than that of control mice with a 19% difference compared to that of control mice at day 24. Thus, Zt/g4-DM1 at the multiple-dose regimen appeared to be well tolerated."}, "[7]": {"tested_on": "human pancreatic cancer cells", "experiment": "PDAC cell viability in combination with chemotherapeutics", "assay_type": "cell-based", "settings": "in vitro, chemotherapeutics including gemcitabine", "procedure": "In vitro cell viability and death assays: Cell viability after treatment of Zt/g4-DM1, chemotherapeutics, and their combinations was determined by the MTT assay. Cell death was determined by the trypan blue exclusion assay.\nFIGS. 10A to 10D are graphs that show the effect of Zt/g4-DM1 on pancreatic cancer cell cycle, viability, and apoptotic death. […] FIG. 12 are graphs that show synergism between Zt/g4-DM1 and chemotherapeutics by isobolograms."}, "[8]": {"settings": "five injections of 1, 3, 5, 7, 10, 15 mg/kg, 31 days"}}}
{"molecule": "Zt/g4-DM1: anti-RON mouse mAb Zt/g4 conjugated to maytansinoid DM1 via non-reducible thioether linkage (SMCC), DAR about 4:1 (conjugate) VH: EVQLQQSGAELVKPGASVKLSCTTSGFNIIDTYIHWVNQKPDQGLEWIGRIDPADGNRKSDPKFQVKATITVDTSSNTAYLQLSSLTSGDTAVYYCARGYGNLNAMDSWGQGTSVTVSS VL: DIQMNQSPSSLSASLGDTITITCHASQNINVWLNWYQQKPGNIPKLLIYKASNLHTGVPSRFSGSGSGTGFTLTISSLQPEDIATYYCQQGQSYPLTFGGGTKLEIK", "values": [{"measurement": "binding intensity compared with free Zt/g4", "setting": "[1]", "value": "No difference in binding intensity"}, {"measurement": "RON-β chain detected", "setting": "[2]", "value": "Less than 20%"}, {"measurement": "effect on cell viability", "setting": "[3]", "value": "no effect"}, {"measurement": "IC50 cell death", "setting": "[4]", "value": "5 to 7", "unit": "µg/mL"}, {"measurement": "cell death", "setting": "[4]; 72 h", "value": "More than 50%"}, {"measurement": "average body weight", "setting": "[5]; [8]", "value": "comparable to that of control mice with no differences"}, {"measurement": "mouse behavior", "setting": "[5]; [8]", "value": "behaved normally"}, {"measurement": "behavior and body weight", "setting": "[5]; single dose 20 mg/kg, tumor-bearing nude mice", "value": "No changes in behavior or body weight were observed"}, {"measurement": "average reduction in mouse body weight", "setting": "[6]; 60 mg/kg", "value": 12, "unit": "%"}, {"measurement": "toxic effect on mouse behavior or body weight", "setting": "[6]; doses up to 40 mg/kg", "value": "no toxic effect on mouse behavior or body weight"}, {"measurement": "distress", "setting": "[6]; single dose 60 mg/kg, Balb/c mice", "value": "Moderate distress"}, {"measurement": "body weight difference compared to control mice", "setting": "[6]; single dose 60 mg/kg, day 24", "value": 19, "unit": "%"}, {"measurement": "reduction of body weight", "setting": "[6]; single dose 60 mg/kg, within the first four days", "value": "about 6%"}, {"measurement": "combination effect with chemotherapeutics on PDAC cell viability", "setting": "[7]", "value": "synergistic effect"}]}
